This passage reports abundance fitness results from the Human Domainome abundance scans (Beltran et al. 2025).

± gives the uncertainty stated by the source.

The series is described as follows: abundance fitness (aPCA) (normalised: wild type 0, dead -1); higher = more abundant; growth selection in yeast, the domain comes from the species named. Particulars: Saccharomyces cerevisiae (strain ATCC 204508 / S288c).
The substance “E3 ubiquitin-protein ligase RSP5 L330Q, P39940” returned an abundance fitness of -0.024 ± 0.053.

For “E3 ubiquitin-protein ligase RSP5 L330R, P39940”, the abundance fitness is -0.088 ± 0.045.

Consider “E3 ubiquitin-protein ligase RSP5 L330S, P39940”, for which the abundance fitness was -0.055 ± 0.05.

As to “E3 ubiquitin-protein ligase RSP5 L330T, P39940”, the abundance fitness is -0.044 ± 0.062.

“E3 ubiquitin-protein ligase RSP5 L330V, P39940” had an abundance fitness of -0.019 ± 0.041.

As to “E3 ubiquitin-protein ligase RSP5 L330W, P39940”, the abundance fitness was -0.161 ± 0.054.

With “E3 ubiquitin-protein ligase RSP5 L330Y, P39940”, the abundance fitness is -0.003 ± 0.08.

The substance “E3 ubiquitin-protein ligase RSP5 L333A, P39940” showed an abundance fitness of -0.648 ± 0.05.

As for “E3 ubiquitin-protein ligase RSP5 L333C, P39940”, the abundance fitness is -0.428 ± 0.06.

Take “E3 ubiquitin-protein ligase RSP5 L333D, P39940”: the abundance fitness is -0.472 ± 0.14.

As to “E3 ubiquitin-protein ligase RSP5 L333E, P39940”, the abundance fitness was -0.64 ± 0.075.

Substance “E3 ubiquitin-protein ligase RSP5 L333F, P39940” had an abundance fitness of -0.034 ± 0.054.

As for “E3 ubiquitin-protein ligase RSP5 L333G, P39940”, the abundance fitness was -0.708 ± 0.043.

Take “E3 ubiquitin-protein ligase RSP5 L333H, P39940”: the abundance fitness is -0.451 ± 0.07.

The substance “E3 ubiquitin-protein ligase RSP5 L333I, P39940” displayed an abundance fitness of -0.227 ± 0.067.

With “E3 ubiquitin-protein ligase RSP5 L333K, P39940”, the abundance fitness is -0.6 ± 0.09.

In the case of “E3 ubiquitin-protein ligase RSP5 L333M, P39940”, the abundance fitness is -0.037 ± 0.097.

“E3 ubiquitin-protein ligase RSP5 L333N, P39940” returned an abundance fitness of -0.627 ± 0.1.

“E3 ubiquitin-protein ligase RSP5 L333P, P39940” gave an abundance fitness of -0.63 ± 0.054.

As for “E3 ubiquitin-protein ligase RSP5 L333S, P39940”, the abundance fitness was -0.654 ± 0.053.

In the case of “E3 ubiquitin-protein ligase RSP5 L333T, P39940”, the abundance fitness is -0.572 ± 0.054.

In turn, “E3 ubiquitin-protein ligase RSP5 L333V, P39940” returned an abundance fitness of -0.447 ± 0.05.

In turn, “E3 ubiquitin-protein ligase RSP5 L333W, P39940” showed an abundance fitness of -0.331 ± 0.052.

Substance “E3 ubiquitin-protein ligase RSP5 N353D, P39940” had an abundance fitness of -0.147 ± 0.15.

For “E3 ubiquitin-protein ligase RSP5 N353E, P39940”, the abundance fitness was -0.149 ± 0.06.

“E3 ubiquitin-protein ligase RSP5 N353F, P39940” returned an abundance fitness of -0.323 ± 0.11.

“E3 ubiquitin-protein ligase RSP5 N353G, P39940” registered an abundance fitness of -0.132 ± 0.043.

The substance “E3 ubiquitin-protein ligase RSP5 N353H, P39940” had an abundance fitness of -0.563 ± 0.14.

For “E3 ubiquitin-protein ligase RSP5 N353I, P39940”, the abundance fitness is -0.083 ± 0.078.

In turn, “E3 ubiquitin-protein ligase RSP5 N353K, P39940” gave an abundance fitness of -0.141 ± 0.08.

Substance “E3 ubiquitin-protein ligase RSP5 N353L, P39940” registered an abundance fitness of -0.278 ± 0.044.

In turn, “E3 ubiquitin-protein ligase RSP5 N353M, P39940” displayed an abundance fitness of -0.132 ± 0.062.

“E3 ubiquitin-protein ligase RSP5 N353P, P39940”: the abundance fitness is -0.673 ± 0.065.

“E3 ubiquitin-protein ligase RSP5 N353Q, P39940” yielded an abundance fitness of -0.212 ± 0.052.

With “E3 ubiquitin-protein ligase RSP5 N353R, P39940”, the abundance fitness was -0.177 ± 0.04.

“E3 ubiquitin-protein ligase RSP5 N353S, P39940” registered an abundance fitness of -0.109 ± 0.061.

Substance “E3 ubiquitin-protein ligase RSP5 N353T, P39940” registered an abundance fitness of -0.113 ± 0.059.

“E3 ubiquitin-protein ligase RSP5 N353V, P39940” displayed an abundance fitness of -0.217 ± 0.044.

In turn, “E3 ubiquitin-protein ligase RSP5 N353W, P39940” had an abundance fitness of -0.44 ± 0.061.

Substance “E3 ubiquitin-protein ligase RSP5 P334A, P39940” displayed an abundance fitness of -0.61 ± 0.07.

In the case of “E3 ubiquitin-protein ligase RSP5 P334C, P39940”, the abundance fitness was -0.746 ± 0.072.

Substance “E3 ubiquitin-protein ligase RSP5 P334D, P39940” showed an abundance fitness of -0.592 ± 0.091.

“E3 ubiquitin-protein ligase RSP5 P334E, P39940”: the abundance fitness was -0.689 ± 0.056.

Take “E3 ubiquitin-protein ligase RSP5 P334F, P39940”: the abundance fitness is -0.889 ± 0.083.

Take “E3 ubiquitin-protein ligase RSP5 P334G, P39940”: the abundance fitness is -0.629 ± 0.044.

As to “E3 ubiquitin-protein ligase RSP5 P334H, P39940”, the abundance fitness was -0.658 ± 0.078.

Turning to “E3 ubiquitin-protein ligase RSP5 P334K, P39940”, the abundance fitness was -0.86 ± 0.071.

Substance “E3 ubiquitin-protein ligase RSP5 P334L, P39940” yielded an abundance fitness of -0.837 ± 0.072.

The substance “E3 ubiquitin-protein ligase RSP5 P334M, P39940” came in with an abundance fitness of -0.702 ± 0.059.

Turning to “E3 ubiquitin-protein ligase RSP5 P334Q, P39940”, the abundance fitness was -0.68 ± 0.056.

“E3 ubiquitin-protein ligase RSP5 P334R, P39940” came in with an abundance fitness of -1.03 ± 0.05.

“E3 ubiquitin-protein ligase RSP5 P334S, P39940”: the abundance fitness is -0.582 ± 0.053.

“E3 ubiquitin-protein ligase RSP5 P334T, P39940” showed an abundance fitness of -0.857 ± 0.069.

The substance “E3 ubiquitin-protein ligase RSP5 P334V, P39940” had an abundance fitness of -0.966 ± 0.05.

As for “E3 ubiquitin-protein ligase RSP5 P334W, P39940”, the abundance fitness was -1.01 ± 0.071.

In turn, “E3 ubiquitin-protein ligase RSP5 P334Y, P39940” gave an abundance fitness of -0.627 ± 0.14.

“E3 ubiquitin-protein ligase RSP5 P343A, P39940” yielded an abundance fitness of 0.013 ± 0.044.

In turn, “E3 ubiquitin-protein ligase RSP5 P343C, P39940” showed an abundance fitness of -0.147 ± 0.16.

Regarding “E3 ubiquitin-protein ligase RSP5 P343D, P39940”, the abundance fitness is 0.099 ± 0.064.

In the case of “E3 ubiquitin-protein ligase RSP5 P343E, P39940”, the abundance fitness was -0.019 ± 0.043.

For the substance “E3 ubiquitin-protein ligase RSP5 P343F, P39940”, the abundance fitness was -0.417 ± 0.49.

Substance “E3 ubiquitin-protein ligase RSP5 P343G, P39940” showed an abundance fitness of -0.018 ± 0.05.

Substance “E3 ubiquitin-protein ligase RSP5 P343H, P39940” came in with an abundance fitness of 0.09 ± 0.082.

In the case of “E3 ubiquitin-protein ligase RSP5 P343I, P39940”, the abundance fitness came to 0.017 ± 0.099.

“E3 ubiquitin-protein ligase RSP5 P343K, P39940” displayed an abundance fitness of 0.102 ± 0.07.

Take “E3 ubiquitin-protein ligase RSP5 P343L, P39940”: the abundance fitness was -0.021 ± 0.048.

“E3 ubiquitin-protein ligase RSP5 P343N, P39940”: the abundance fitness turned out to be 0.116 ± 0.098.

“E3 ubiquitin-protein ligase RSP5 P343Q, P39940” returned an abundance fitness of -0.041 ± 0.059.

On to “E3 ubiquitin-protein ligase RSP5 P343S, P39940”, for which the abundance fitness worked out at 0.07 ± 0.056.

For “E3 ubiquitin-protein ligase RSP5 P343T, P39940”, the abundance fitness was 0.014 ± 0.057.

As to “E3 ubiquitin-protein ligase RSP5 P343W, P39940”, the abundance fitness is -0.313 ± 0.054.

The substance “E3 ubiquitin-protein ligase RSP5 P343Y, P39940” registered an abundance fitness of -0.402 ± 0.35.

In the case of “E3 ubiquitin-protein ligase RSP5 P362A, P39940”, the abundance fitness was -0.747 ± 0.046.

Substance “E3 ubiquitin-protein ligase RSP5 P362D, P39940” gave an abundance fitness of -0.813 ± 0.097.

The substance “E3 ubiquitin-protein ligase RSP5 P362E, P39940” came in with an abundance fitness of -0.723 ± 0.076.

“E3 ubiquitin-protein ligase RSP5 P362F, P39940” yielded an abundance fitness of -1.41 ± 0.47.

Take “E3 ubiquitin-protein ligase RSP5 P362G, P39940”: the abundance fitness is -0.852 ± 0.044.

In turn, “E3 ubiquitin-protein ligase RSP5 P362H, P39940” gave an abundance fitness of -0.905 ± 0.28.

“E3 ubiquitin-protein ligase RSP5 P362I, P39940”: the abundance fitness is -0.791 ± 0.12.

In turn, “E3 ubiquitin-protein ligase RSP5 P362K, P39940” registered an abundance fitness of -1.01 ± 0.1.

Substance “E3 ubiquitin-protein ligase RSP5 P362L, P39940” registered an abundance fitness of -0.993 ± 0.051.

For the substance “E3 ubiquitin-protein ligase RSP5 P362M, P39940”, the abundance fitness was -1.2 ± 0.35.

For “E3 ubiquitin-protein ligase RSP5 P362Q, P39940”, the abundance fitness is -0.709 ± 0.093.

Regarding “E3 ubiquitin-protein ligase RSP5 P362S, P39940”, the abundance fitness was -1.09 ± 0.065.

In the case of “E3 ubiquitin-protein ligase RSP5 P362T, P39940”, the abundance fitness is -0.708 ± 0.067.

In the case of “E3 ubiquitin-protein ligase RSP5 P362V, P39940”, the abundance fitness was -0.705 ± 0.048.

Substance “E3 ubiquitin-protein ligase RSP5 P362W, P39940” showed an abundance fitness of -1.21 ± 0.062.

Turning to “E3 ubiquitin-protein ligase RSP5 P362Y, P39940”, the abundance fitness was -1.01 ± 0.18.

On to “E3 ubiquitin-protein ligase RSP5 Q339A, P39940”, for which the abundance fitness was -0.143 ± 0.047.

Turning to “E3 ubiquitin-protein ligase RSP5 Q339C, P39940”, the abundance fitness was -0.092 ± 0.07.

Consider “E3 ubiquitin-protein ligase RSP5 Q339D, P39940”, for which the abundance fitness is -0.602 ± 0.09.
